We go through seven molecules from patent publication US20220185903A1, “Novel bispecific binding molecule and drug conjugate thereof” (priority 2019, published 2022).

Where a SMILES comes first, the peptide text is derived from it. [ ]: non-standard residue; d: D form. The star is where a group is joined. Dolaproine = CO[C@@H]([C@@H]1CCCN1)[C@@H](C)C(=O)O; Dil = CC[C@H](C)[C@H](NC)[C@@H](CC(=O)O)OC; X1 = C[C@@H](N*)[C@@H](O)c1ccccc1; NMeV = CN[C@H](C(=O)O)C(C)C

The test system of test [1] is CD20−/CXCR4+ Jurkat cells. Nature of the test: Killing activity of ADC on co-cultured Ramos/Jurkat cells: Jurkat count. In kind it is cell-based. The note with it: co-cultured Ramos/Jurkat 1:1, 72 hours, flow cytometer count. Here is the method:
(§1) 6.2 Analysis of Killing Activity of ADC on Co-Cultured Ramos/Jurkat Cells
(§2) Ramos and Jurkat cells (RPMI 1640 medium containing 10% FBS and 1% double antibody) were cultured, respectively. Jurkat cells were stained with calcein-AM (eBioscience) and Ramos cells stained with Celltracker Organge CMTMR (Invitrogen) according to protocols provided by the manufacturer, followed by washed for three times with PBS. After cell count, Ramos and Jurkat cells were mixed at a ratio of 1:1, and 2×10^4 Ramos/Jurkat mixed cells were added to a U-shaped bottom 96-well plate (90 ul/well). 10 ul of SYN-AC, RTX or RXT-AC with different concentrations was added to the 96-well plate above, and incubated at 37° C., 5% CO2 for 72 hours. The numbers of the Ramos and Jurkat cells were counted with a flow cytometer (BD LSR II with a BD high throughput Sampler (HTS)).
In general terms: A flow cytometer gives signals particle by particle.

For test [2], the system named is CD20+/CXCR4+ Ramos cells. Kind of test: Killing activity of ADC on co-cultured Ramos/Jurkat cells: Ramos count. In kind it is cell-based. Here is the method: as §1, §2
Test [3] has as its target T1, CXCR4 (UniProt P61073 1-352, limits assumed). Nature of the test: cell-based or functional assay.
Test [4] deals with T1, CXCR4. Kind of test: flow cytometry on CXCR4+/CD20- Jurkat cells. The method, then:
(§3) The CXCR4⁺/CD20⁻ Jurkat cells and CXCR4^dim/CD20⁺JAB cells were cultured in RPMI 1640 medium containing 10% FBS and […]). Cells were collected by centrifugation, and washed with PBS for 3-4 times. After blocked by 1% BSA (in PBS) at 4° C. for 1 h, the cells were resuspended with PBS with 1% BSA at a density of 5×10⁵/100 μL. […] After being washed with PBS with 1% BSA for 3 times, cells were resuspended with PBS/1% BSA containing a PE-anti-human Fc antibody (Clone HP6017, Biolegend, CA), and incubated at 4° C. for 2 hours. Then an LSR II flow cytometer (Becton Dickinson, N.J.) was applied, and FlowJo software (TreeStar, OR) was used for analysis. Data was analyzed by nonlinear regression using a log (agonist) vs. response model in Prizm Graphpad software.

Test [5] addresses T1, CXCR4. Nature of the test: flow cytometry on CXCR4+/CD20- Jurkat cells, PE-anti-human Fc detection. The method, then:
as §3

Test [6] concerns the target T2, CD20 (UniProt P11836 1-297, limits assumed).
T2 sequence (looked up): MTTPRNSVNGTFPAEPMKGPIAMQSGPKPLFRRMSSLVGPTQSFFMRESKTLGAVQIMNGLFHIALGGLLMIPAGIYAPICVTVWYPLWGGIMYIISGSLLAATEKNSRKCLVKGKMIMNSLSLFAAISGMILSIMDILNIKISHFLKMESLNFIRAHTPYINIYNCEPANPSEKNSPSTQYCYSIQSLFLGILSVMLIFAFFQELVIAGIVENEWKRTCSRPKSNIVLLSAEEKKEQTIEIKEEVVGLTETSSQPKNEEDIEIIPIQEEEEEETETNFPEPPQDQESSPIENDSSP
Kind of test: cell-based or functional assay.

T1 sequence (P61073 whole entry): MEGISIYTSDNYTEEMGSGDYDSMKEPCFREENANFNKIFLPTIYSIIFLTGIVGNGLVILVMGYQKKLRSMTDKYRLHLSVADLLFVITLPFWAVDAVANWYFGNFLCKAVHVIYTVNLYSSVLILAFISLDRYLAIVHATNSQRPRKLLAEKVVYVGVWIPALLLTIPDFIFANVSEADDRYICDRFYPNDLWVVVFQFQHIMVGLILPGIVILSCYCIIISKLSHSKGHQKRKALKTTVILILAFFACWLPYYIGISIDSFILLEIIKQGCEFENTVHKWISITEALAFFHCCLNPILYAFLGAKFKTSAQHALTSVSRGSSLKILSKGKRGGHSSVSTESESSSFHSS

Take `CC[C@H](C)[C@@H]([C@@H](CC(=O)N1CCC[C@H]1[C@H](OC)[C@@H](C)C(=O)N[C@H](C)[C@@H](O)c1ccccc1)OC)N(C)C(=O)[C@@H](NC(=O)[C@@H](NC)C(C)C)C(C)C` [MMAE, monomethylalistatin E, reference compound] (H-[NMeV]V[Dil][Dolaproine]-X1): the concentration giving a half-maximal response (EC50) (commonly the concentration giving half of the maximal effect) in test [1] was 24.5 ± 6.8 nM; in test [2] (co-cultured Ramos/Jurkat 1:1, 72 hours, flow cytometer count) it was 9.1 ± 3.8 nM. Also, in test [2] (co-cultured Jurkat and Ramos cells, selectivity Jurkat vs Ramos), the “TI (therapeutic index)” value is reported as 2.7.

B1: SYN-AC-MMAE (SYN-AC conjugated with NHS-PEG4-MMAE) (other)
heavy: QVTLRESGPALVKPTQTLTLTCTFSGFSLSTSGMSVGWIRQPPGKALEWLADIWWDDKKDYNPSLKSRLTISKDTSKNQVVLKVTNMDPADTATYYCARSMITNWYFDVWGAGTTVTVSSASTKGPSVFPLAPSSKSTSGGTAALGCLVKDYFPEPVTVSWNSGALTSGVHTFPAVLQSSGLYSLSSVVTVPSSSLGTQTYICNVNHKPSNTKVDKKVEPKSCDKTHTCPPCPAPPVAGPSVFLFPPKPKDTLMISRTPEVTCVVVDVSHEDPEVKFNWYVDGVEVHNAKTKPREEQYNSTYRVVSVLTVLHQDWLNGKEYKCKVSNKGLPSSIEKTISKAKGQPREPQVYTLPPSRDELTKNQVSLTCLVKGFYPSDIAVEWESNGQPENNYKTTPPVLDSDGSFFLYSKLTVDKSRWQQGNVFSCSVMHEALHNHYTQKSLSLSPGK
light: DIQMTQSPSTLSASVGDRVTITCKCQLSVGYMHWYQQKPGKAPKLLIYDTSKLASGVPSRFSGSGSGTEFTLTISSLQPDDFATYYCFQGSGYPFTFGGGTKLEIKRTVAAPSVFIFPPSDEQLKSGTASVVCLLNNFYPREAKVQWKVDNALQSGNSQESVTEQDSGGSGAKLAALKAKLAALKGGGGSYRKCRGGRRWCYQKGGGGSELAALEAELAALEAGGSGDSTYSLSSTLTLSKADYEKHKVYACEVTHQGLSSPVTKSFNRGEC
modifications: conjugated with NHS-PEG4-MMAE, 0 to 2 per light chain by MS; sites not stated; conjugated with NHS-PEG4-MMAE, 0 to 2 per heavy chain by MS; sites not stated
Consider B1, for which, in test [3], the “EC50 (nM), killing of Jurkat cells in co-cultured Ramos/Jurkat cells, 72 h” value worked out at 21 nM and the “EC50 (nM), killing of Ramos cells in co-cultured Ramos/Jurkat cells, 72 h” value is 12.6 nM.

B2: SYN-AC (Synagis, anti-RSV, with the CXCR4 antagonistic peptide inserted into the constant region of the light chain) (bispecific antibody, human IgG1, kappa)
heavy: B1 heavy
light: B1 light
notes: hIgG1 Fc with E233P/L234V/L235A/deltaG236+A327G/A330S/P331S
Take B2: in test [4], the binding result was “binds”.

B3: RTX (Rituxan, anti-CD20 antibody) (antibody, V domains shown)
VH: QVQLQQPGAELVKPGASVKMSCKASGYTFTSYNMHWVKQTPGRGLEWIGAIYPGNGDTSYNQKFKGKATLTADKSSSTAYMQLSSLTSEDSAVYYCARSTYYGGDWYFNVWGAGTTVTVSA
VL: QIVLSQSPAILSASPGEKVTMTCRASSSVSYIHWFQQKPGSSPKPWIYATSNLASGVPVRFSGSGSGTSYSLTISRVEAEDAATYYCQQWTSNPPTFGGGTKLEIKR
notes: Rituxan Fab heavy chain cloned into pFuse-hIgG1-Fc carrying E233P/L234V/L235A/deltaG236+A327G/A330S/P331S; expressed in HEK293
B3: the binding result in test [5] is “no binding”.

B4: RTX-MMAE (RTX conjugated with NHS-PEG4-MMAE) (other)
heavy: QVQLQQPGAELVKPGASVKMSCKASGYTFTSYNMHWVKQTPGRGLEWIGAIYPGNGDTSYNQKFKGKATLTADKSSSTAYMQLSSLTSEDSAVYYCARSTYYGGDWYFNVWGAGTTVTVSAASTKGPSVFPLAPSSKSTSGGTAALGCLVKDYFPEPVTVSWNSGALTSGVHTFPAVLQSSGLYSLSSVVTVPSSSLGTQTYICNVNHKPSNTKVDKKVEPKSCDKTHTCPPCPAPPVAGPSVFLFPPKPKDTLMISRTPEVTCVVVDVSHEDPEVKFNWYVDGVEVHNAKTKPREEQYNSTYRVVSVLTVLHQDWLNGKEYKCKVSNKGLPSSIEKTISKAKGQPREPQVYTLPPSRDELTKNQVSLTCLVKGFYPSDIAVEWESNGQPENNYKTTPPVLDSDGSFFLYSKLTVDKSRWQQGNVFSCSVMHEALHNHYTQKSLSLSPGK
light: QIVLSQSPAILSASPGEKVTMTCRASSSVSYIHWFQQKPGSSPKPWIYATSNLASGVPVRFSGSGSGTSYSLTISRVEAEDAATYYCQQWTSNPPTFGGGTKLEIKRTVAAPSVFIFPPSDEQLKSGTASVVCLLNNFYPREAKVQWKVDNALQSGNSQESVTEQDSKDSTYSLSSTLTLSKADYEKHKVYACEVTHQGLSSPVTKSFNRGEC
modifications: conjugated with NHS-PEG4-MMAE, 0 to 2 per light chain by MS; sites not stated; conjugated with NHS-PEG4-MMAE, 0 to 2 per heavy chain by MS; sites not stated
With B4, the “EC50 (nM), killing of Ramos cells in co-cultured Ramos/Jurkat cells, 72 h” value in test [6] stood at 6 nM.

B5: RTX-AC (Rituxan with the CXCR4 antagonistic peptide inserted into the constant region of the light chain) (bispecific antibody, human IgG1, kappa)
heavy: B4 heavy
light: QIVLSQSPAILSASPGEKVTMTCRASSSVSYIHWFQQKPGSSPKPWIYATSNLASGVPVRFSGSGSGTSYSLTISRVEAEDAATYYCQQWTSNPPTFGGGTKLEIKRTVAAPSVFIFPPSDEQLKSGTASVVCLLNNFYPREAKVQWKVDNALQSGNSQESVTEQDSGGSGAKLAALKAKLAALKGGGGSYRKCRGGRRWCYQKGGGGSELAALEAELAALEAGGSGDSTYSLSSTLTLSKADYEKHKVYACEVTHQGLSSPVTKSFNRGEC
notes: hIgG1 Fc with E233P/L234V/L235A/deltaG236+A327G/A330S/P331S; also called RXT-AC
B5: the binding result in test [4] is listed as “binds”.

B6: RTX-AC-MMAE (RTX-AC conjugated with NHS-PEG4-MMAE) (other)
heavy: B4 heavy
light: B5 light
modifications: conjugated with NHS-PEG4-MMAE, 0 to 2 per light chain by MS; sites not stated; conjugated with NHS-PEG4-MMAE, 0 to 3 per heavy chain by MS; sites not stated
Consider B6, for which the “EC50 (nM), killing of Ramos cells in co-cultured Ramos/Jurkat cells, 72 h” value in test [3] and in test [6] was 0.29 nM throughout.
